Molecular target: T1, EsCas13d, nuclease-dead (Eubacterium siraeum, UniProt B0MS50, R295A;H300A;R849A;H854A)
T1 sequence: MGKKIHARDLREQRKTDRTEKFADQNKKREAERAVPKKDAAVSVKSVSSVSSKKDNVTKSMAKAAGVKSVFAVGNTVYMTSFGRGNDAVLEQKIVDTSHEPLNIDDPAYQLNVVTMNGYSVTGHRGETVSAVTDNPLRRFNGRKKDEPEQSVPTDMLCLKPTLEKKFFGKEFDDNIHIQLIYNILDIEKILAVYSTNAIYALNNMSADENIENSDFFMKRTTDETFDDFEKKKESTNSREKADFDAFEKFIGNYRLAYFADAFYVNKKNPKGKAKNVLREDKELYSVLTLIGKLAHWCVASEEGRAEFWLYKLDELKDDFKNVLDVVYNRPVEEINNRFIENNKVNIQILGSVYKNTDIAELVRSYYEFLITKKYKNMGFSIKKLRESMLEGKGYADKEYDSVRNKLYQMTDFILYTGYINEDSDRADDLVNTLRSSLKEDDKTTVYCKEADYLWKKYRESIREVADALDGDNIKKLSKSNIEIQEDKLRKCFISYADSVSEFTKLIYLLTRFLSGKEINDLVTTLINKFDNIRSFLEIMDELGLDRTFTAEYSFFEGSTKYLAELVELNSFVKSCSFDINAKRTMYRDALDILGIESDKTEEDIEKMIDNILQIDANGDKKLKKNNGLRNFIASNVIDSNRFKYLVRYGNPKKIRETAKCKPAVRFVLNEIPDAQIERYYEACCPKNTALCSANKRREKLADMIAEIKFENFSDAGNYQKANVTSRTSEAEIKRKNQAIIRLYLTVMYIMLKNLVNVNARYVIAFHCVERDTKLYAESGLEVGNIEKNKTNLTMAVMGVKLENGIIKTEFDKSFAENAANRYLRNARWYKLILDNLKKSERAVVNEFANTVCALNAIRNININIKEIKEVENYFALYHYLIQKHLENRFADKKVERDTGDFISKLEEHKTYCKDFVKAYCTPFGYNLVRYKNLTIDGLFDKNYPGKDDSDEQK
Assay: crRNA (strand 1, pre-loaded); Mg2+; 40 mM Tris-HCl pH 7.5, 150 mM NaCl, 6 mM MgCl2, 1 mM DTT, 0.1% Tween-20, 0.2 mg/ml BSA; 25 C; 10 min per concentration, then washed
Conditions: tags: His6-TwinStrep-SUMO cleaved; N-terminal SNAP kept (SNAP-Surface 488); label: 3' end held by stalled T7 RNA polymerase

B1: target 1 insC 3' of 22,insG 3' of 3 (mixed)
RNA 1: CACCCGUGCAAAAAUGCAGGGGUCUAAAACUGAGCGGAUAACCUCUCUAUGG
RNA 2: GGGAAUGGAUCCACAUCUACGAAUUCGUACCCAUAGAGAGGUUAUCCGCUGCACCGAGAUCGGAAGAGCACACGU
- Kd: 11 ± 0.7 nM

B2: target 1 C7A,G17A (mixed)
RNA 1: CACCCGUGCAAAAAUGCAGGGGUCUAAAACUGAGCGGAUAACCUCUCUAUGG
RNA 2: GGGAAUGGAUCCACAUCUACGAAUUCGUACCAUAAAGAGGUUAUACGCUCACCGAGAUCGGAAGAGCACACGU
- Kd: 51 ± 5 nM

B3: target 1 insA 3' of 19,insC 3' of 8 (mixed)
RNA 1: CACCCGUGCAAAAAUGCAGGGGUCUAAAACUGAGCGGAUAACCUCUCUAUGG
RNA 2: GGGAAUGGAUCCACAUCUACGAAUUCGUACCAUAAGAGAGGUUAUCCCGCUCACCGAGAUCGGAAGAGCACACGU
- Kd: 34 ± 4 nM

B4: target 1 A1G,G15C (mixed)
RNA 1: CACCCGUGCAAAAAUGCAGGGGUCUAAAACUGAGCGGAUAACCUCUCUAUGG
RNA 2: GGGAAUGGAUCCACAUCUACGAAUUCGUACCAUAGACAGGUUAUCCGCUCGCCGAGAUCGGAAGAGCACACGU
- Kd: 58 ± 9 nM

B5: target 1 insG 3' of 14,insU 3' of 12 (mixed)
RNA 1: CACCCGUGCAAAAAUGCAGGGGUCUAAAACUGAGCGGAUAACCUCUCUAUGG
RNA 2: GGGAAUGGAUCCACAUCUACGAAUUCGUACCAUAGAGAGGGUUUAUCCGCUCACCGAGAUCGGAAGAGCACACGU
- Kd: 16.4 ± 2.4 nM

B6: target 1 insC 3' of 8,insU 3' of 6 (mixed)
RNA 1: CACCCGUGCAAAAAUGCAGGGGUCUAAAACUGAGCGGAUAACCUCUCUAUGG
RNA 2: GGGAAUGGAUCCACAUCUACGAAUUCGUACCAUAGAGAGGUUAUCCCUGCUCACCGAGAUCGGAAGAGCACACGU
- Kd: 21.1 ± 1.5 nM

B7: target 1 insG 3' of 14,insA 3' of 11 (mixed)
RNA 1: CACCCGUGCAAAAAUGCAGGGGUCUAAAACUGAGCGGAUAACCUCUCUAUGG
RNA 2: GGGAAUGGAUCCACAUCUACGAAUUCGUACCAUAGAGAGGGUAUAUCCGCUCACCGAGAUCGGAAGAGCACACGU
- Kd: 39.2 ± 2.6 nM

B8: target 1 insG 3' of 19,insU 3' of 12 (mixed)
RNA 1: CACCCGUGCAAAAAUGCAGGGGUCUAAAACUGAGCGGAUAACCUCUCUAUGG
RNA 2: GGGAAUGGAUCCACAUCUACGAAUUCGUACCAUGAGAGAGGUUUAUCCGCUCACCGAGAUCGGAAGAGCACACGU
- Kd: 48 ± 5 nM

B9: target 1 insU 3' of 20,insU 3' of 6 (mixed)
RNA 1: CACCCGUGCAAAAAUGCAGGGGUCUAAAACUGAGCGGAUAACCUCUCUAUGG
RNA 2: GGGAAUGGAUCCACAUCUACGAAUUCGUACCAUUAGAGAGGUUAUCCUGCUCACCGAGAUCGGAAGAGCACACGU
- Kd: 15.4 ± 0.6 nM

B10: target 1 insC 3' of 22,insA 3' of 2 (mixed)
RNA 1: CACCCGUGCAAAAAUGCAGGGGUCUAAAACUGAGCGGAUAACCUCUCUAUGG
RNA 2: GGGAAUGGAUCCACAUCUACGAAUUCGUACCCAUAGAGAGGUUAUCCGCUCAACCGAGAUCGGAAGAGCACACGU
- Kd: 24 ± 4 nM

B11: target 1 insA 3' of 6,insA 3' of 6 (mixed)
RNA 1: CACCCGUGCAAAAAUGCAGGGGUCUAAAACUGAGCGGAUAACCUCUCUAUGG
RNA 2: GGGAAUGGAUCCACAUCUACGAAUUCGUACCAUAGAGAGGUUAUCCAAGCUCACCGAGAUCGGAAGAGCACACGU
- Kd: 17.4 ± 0.9 nM

B12: target 1 insC 3' of 19,insA 3' of 7 (mixed)
RNA 1: CACCCGUGCAAAAAUGCAGGGGUCUAAAACUGAGCGGAUAACCUCUCUAUGG
RNA 2: GGGAAUGGAUCCACAUCUACGAAUUCGUACCAUCAGAGAGGUUAUCACGCUCACCGAGAUCGGAAGAGCACACGU
- Kd: 26.6 ± 2.4 nM

B13: target 1 insG 3' of 16,insC 3' of 5 (mixed)
RNA 1: CACCCGUGCAAAAAUGCAGGGGUCUAAAACUGAGCGGAUAACCUCUCUAUGG
RNA 2: GGGAAUGGAUCCACAUCUACGAAUUCGUACCAUAGAGGAGGUUAUCCGCCUCACCGAGAUCGGAAGAGCACACGU
- Kd: 52 ± 5 nM

B14: target 1 G5U,G13U (mixed)
RNA 1: CACCCGUGCAAAAAUGCAGGGGUCUAAAACUGAGCGGAUAACCUCUCUAUGG
RNA 2: GGGAAUGGAUCCACAUCUACGAAUUCGUACCAUAGAGAUGUUAUCCUCUCACCGAGAUCGGAAGAGCACACGU
- Kd: 64 ± 8 nM

B15: target 1 insC 3' of 8,insC 3' of 5 (mixed)
RNA 1: CACCCGUGCAAAAAUGCAGGGGUCUAAAACUGAGCGGAUAACCUCUCUAUGG
RNA 2: GGGAAUGGAUCCACAUCUACGAAUUCGUACCAUAGAGAGGUUAUCCCGCCUCACCGAGAUCGGAAGAGCACACGU
- Kd: 14.6 ± 0.7 nM

B16: target 1 insA 3' of 22,insG 3' of 19 (mixed)
RNA 1: CACCCGUGCAAAAAUGCAGGGGUCUAAAACUGAGCGGAUAACCUCUCUAUGG
RNA 2: GGGAAUGGAUCCACAUCUACGAAUUCGUACACAUGAGAGAGGUUAUCCGCUCACCGAGAUCGGAAGAGCACACGU
- Kd: 51 ± 7 nM

B17: target 1 C7U,G17A (mixed)
RNA 1: CACCCGUGCAAAAAUGCAGGGGUCUAAAACUGAGCGGAUAACCUCUCUAUGG
RNA 2: GGGAAUGGAUCCACAUCUACGAAUUCGUACCAUAAAGAGGUUAUUCGCUCACCGAGAUCGGAAGAGCACACGU
- Kd: 34 ± 4 nM

B18: target 1 insU 3' of 18,insG 3' of 6 (mixed)
RNA 1: CACCCGUGCAAAAAUGCAGGGGUCUAAAACUGAGCGGAUAACCUCUCUAUGG
RNA 2: GGGAAUGGAUCCACAUCUACGAAUUCGUACCAUAUGAGAGGUUAUCCGGCUCACCGAGAUCGGAAGAGCACACGU
- Kd: 33.2 ± 2.9 nM

B19: target 1 insA 3' of 10,insA 3' of 8 (mixed)
RNA 1: CACCCGUGCAAAAAUGCAGGGGUCUAAAACUGAGCGGAUAACCUCUCUAUGG
RNA 2: GGGAAUGGAUCCACAUCUACGAAUUCGUACCAUAGAGAGGUUAAUACCGCUCACCGAGAUCGGAAGAGCACACGU
- Kd: 11.3 ± 0.4 nM

B20: target 1 U11G,G12C (mixed)
RNA 1: CACCCGUGCAAAAAUGCAGGGGUCUAAAACUGAGCGGAUAACCUCUCUAUGG
RNA 2: GGGAAUGGAUCCACAUCUACGAAUUCGUACCAUAGAGAGCGUAUCCGCUCACCGAGAUCGGAAGAGCACACGU
- Kd: 17 ± 1 nM

B21: target 1 insU 3' of 18,insA 3' of 11 (mixed)
RNA 1: CACCCGUGCAAAAAUGCAGGGGUCUAAAACUGAGCGGAUAACCUCUCUAUGG
RNA 2: GGGAAUGGAUCCACAUCUACGAAUUCGUACCAUAUGAGAGGUAUAUCCGCUCACCGAGAUCGGAAGAGCACACGU
- Kd: 68 ± 6 nM

B22: target 1 U11C,G12A (mixed)
RNA 1: CACCCGUGCAAAAAUGCAGGGGUCUAAAACUGAGCGGAUAACCUCUCUAUGG
RNA 2: GGGAAUGGAUCCACAUCUACGAAUUCGUACCAUAGAGAGACUAUCCGCUCACCGAGAUCGGAAGAGCACACGU
- Kd: 8.9 ± 0.4 nM

B23: target 1 insA 3' of 19,insA 3' of 19 (mixed)
RNA 1: CACCCGUGCAAAAAUGCAGGGGUCUAAAACUGAGCGGAUAACCUCUCUAUGG
RNA 2: GGGAAUGGAUCCACAUCUACGAAUUCGUACCAUAAAGAGAGGUUAUCCGCUCACCGAGAUCGGAAGAGCACACGU
- Kd: 22.1 ± 2.4 nM

B24: target 1 G5C,U11G (mixed)
RNA 1: CACCCGUGCAAAAAUGCAGGGGUCUAAAACUGAGCGGAUAACCUCUCUAUGG
RNA 2: GGGAAUGGAUCCACAUCUACGAAUUCGUACCAUAGAGAGGGUAUCCCCUCACCGAGAUCGGAAGAGCACACGU
- Kd: 37 ± 5 nM

B25: target 1 C4G,C6U (mixed)
RNA 1: CACCCGUGCAAAAAUGCAGGGGUCUAAAACUGAGCGGAUAACCUCUCUAUGG
RNA 2: GGGAAUGGAUCCACAUCUACGAAUUCGUACCAUAGAGAGGUUAUCUGGUCACCGAGAUCGGAAGAGCACACGU
- Kd: 3.83 ± 0.2 nM

B26: target 1 insA 3' of 17,insC 3' of 17 (mixed)
RNA 1: CACCCGUGCAAAAAUGCAGGGGUCUAAAACUGAGCGGAUAACCUCUCUAUGG
RNA 2: GGGAAUGGAUCCACAUCUACGAAUUCGUACCAUAGACAGAGGUUAUCCGCUCACCGAGAUCGGAAGAGCACACGU
- Kd: 41.4 ± 2.9 nM

B27: target 1 insU 3' of 15,insA 3' of 10 (mixed)
RNA 1: CACCCGUGCAAAAAUGCAGGGGUCUAAAACUGAGCGGAUAACCUCUCUAUGG
RNA 2: GGGAAUGGAUCCACAUCUACGAAUUCGUACCAUAGAGUAGGUUAAUCCGCUCACCGAGAUCGGAAGAGCACACGU
- Kd: 20.2 ± 1.1 nM

B28: target 1 insA 3' of 22,insG 3' of 1 (mixed)
RNA 1: CACCCGUGCAAAAAUGCAGGGGUCUAAAACUGAGCGGAUAACCUCUCUAUGG
RNA 2: GGGAAUGGAUCCACAUCUACGAAUUCGUACACAUAGAGAGGUUAUCCGCUCAGCCGAGAUCGGAAGAGCACACGU
- Kd: 11.2 ± 0.4 nM

— publication PMC10786891, “Massively parallel profiling of RNA-targeting CRISPR-Cas13d”
